Assay results from patent US20040253612A1.

How the values were obtained:
[1] = target: anti-myc monoclonal antibody (doped selection experiment); assay: immunoprecipitation from 1:20 myc:pool (LP154:LP160); PCR, AlwnI digest, phosphorimager; background method 1
[2] = target: anti-myc monoclonal antibody (doped selection experiment); assay: second set of digests, method 2; sample equivalent to lane 4 (1:2000 myc:pool)
[3] = target: anti-myc monoclonal antibody (doped selection experiment); assay: immunoprecipitation; PCR and restriction digest before and after selection
[4] = target: anti-myc monoclonal antibody (doped selection experiment); assay: immunoprecipitation from 1:2000 myc:pool (LP154:LP160); PCR, AlwnI digest, phosphorimager; background method 1
[5] = target: anti-myc monoclonal antibody (doped selection experiment); assay: immunoprecipitation from 1:20 myc:pool (LP154:LP160); PCR, AlwnI digest, phosphorimager; background method 2
[6] = target: anti-myc monoclonal antibody (doped selection experiment); assay: immunoprecipitation from 1:20 myc:pool (LP154:LP160); PCR, AlwnI digest, phosphorimager; background method 3
[7] = target: anti-myc monoclonal antibody (doped selection experiment); assay: immunoprecipitation from 1:2000 myc:pool (LP154:LP160); PCR, AlwnI digest, phosphorimager; background method 3
[8] = target: anti-myc monoclonal antibody (doped selection experiment); assay: immunoprecipitation from 1:2000 myc:pool (LP154:LP160); PCR, AlwnI digest, phosphorimager; background method 2
[9] = target: anti-myc monoclonal antibody (doped selection experiment); assay: second set of digests, method 2; sample equivalent to lane 2 (1:20 myc:pool)
[10] = target: anti-myc monoclonal antibody (doped selection experiment); assay: immunoprecipitation from 1:200 myc:pool (LP154:LP160); PCR, AlwnI digest, phosphorimager; background method 3
[11] = target: anti-myc monoclonal antibody (doped selection experiment); assay: second set of digests, method 2; sample equivalent to lane 3 (1:200 myc:pool)
[12] = target: anti-myc monoclonal antibody (doped selection experiment); assay: immunoprecipitation from 1:200 myc:pool (LP154:LP160); PCR, AlwnI digest, phosphorimager; background method 1
[13] = target: anti-myc monoclonal antibody (doped selection experiment); assay: immunoprecipitation from 1:200 myc:pool (LP154:LP160); PCR, AlwnI digest, phosphorimager; background method 2

Enrichment of Myc Template vs. Pool [1]: 7 fold
enrichment (fold) of myc template vs. pool [2]: 12 fold
enrichment (fold) relative to the random library [3]: 20 to 40 fold
Enrichment of Myc Template vs. Pool [4]: 5.7 fold
Enrichment of Myc Template vs. Pool [5]: 10.4 fold
Enrichment of Myc Template vs. Pool [6]: 8.7 fold
Enrichment of Myc Template vs. Pool [7]: 10.2 fold
Enrichment of Myc Template vs. Pool [8]: 39 fold
enrichment (fold) of myc template vs. pool [9]: 10.7 fold
Enrichment of Myc Template vs. Pool [10]: 27 fold
enrichment (fold) of myc template vs. pool [11]: 38 fold
Enrichment of Myc Template vs. Pool [12]: 16.6 fold
Enrichment of Myc Template vs. Pool [13]: 43 fold
B1: RNA-protein fusion LP154 (long myc template fusion) (peptide)
peptide: MAEEQKLISEEDLLRKRREQLKHKLEQLRNSCA
modifications: C-terminus joined by an amide bond to the 3' puromycin of its own mRNA-DNA linker template LP154 (SEQ ID NO: 3)
